Results reported in publication PMC3663837.

How the values were obtained:
[1] = target: SUMO-StPTB1; test: phage ELISA; details: parent: est. 0.18; read off a plot
[2] = target: SUMO-StPTB6; test: phage ELISA; details: parent: est. 0.19; read off a plot

Substance: phage-displayed StNova1 subdomain S2 G7del; G11del; G15del; G18del
- response [1]: 0.079 λ490
- response [2]: 0.079 λ490

Substance: phage-displayed StNova1 subdomain S2 G15del; G18del; P21del
- response [1]: 0.11 λ490
- response [2]: 0.13 λ490

Substance: phage-displayed StNova1 subdomain S2 G7del; G11del; P13del
- response [1]: 0.044 λ490
- response [2]: 0.043 λ490
